Assay results reported in publication PMC11430254, “Insights into Transient Dimerisation of Carnitine/Acylcarnitine Carrier (SLC25A20) from Sarkosyl/PAGE, Cross-Linking Reagents, and Comparative Modelling Analysis” (Biomolecules, 2024).

Columns and labels:
[1] = molecular target: the molecule itself; experiment: cross-linking; purified CAC reconstituted in liposomes (0.5 µg protein), 0.5 mM Sulfo-MBS (spacer arm 9.9 Å), 30 min at room temperature, quenched with 10 mM DTE and 20 mM Tris-HCl pH 8.0; SDS-PAGE and immunoblot
[2] = molecular target: the molecule itself; experiment: native gel or EMSA; Sarkosyl/PAGE: 14% polyacrylamide, 0.05% w/v Sarkosyl in gel, samples and running buffer, 100 Volt, 4 °C; purified CAC in Triton X-100 or extracted from proteoliposomes with 0.05% Sarkosyl; silver nitrate staining; 59 kDa band excised and run on SDS-PAGE with immunoblot
[3] = molecular target: the molecule itself; experiment: cross-linking; recombinant CAC WT alone (100) or mixed with C-lessV (75/25, 50/50) reconstituted in liposomes, incubated with Sulfo-SMPB; SDS-PAGE and immunoblot

Protein | stoichiometry N [1] | stoichiometry N [2] | stoichiometry N [3]
native carnitine/acylcarnitine carrier purified from isolated rat liver mitochondria (natural protein, UniProt P97521 1-301, looked up, mitochondrial carnitine/acylcarnitine carrier (CAC, SLC25A20), rat, native protein from liver mitochondria; single band of apparent molecular weight 32,500 Da on SDS gel; Integral membrane protein; also called CAC; SLC25A20; source: purified from rat liver mitoplasts (3% Triton X-100 extract, hydroxyapatite, celite with cardiolipin); used in Triton X-100 or reconstituted in liposomes) MAEEPKPISPLKNLLAGGFGGVCLVFVGHPLDTVKVRLQTQPPSLPGQPPMYSGTIDCFRKTLFREGITGLYRGMAAPIIGVTPMFAVCFFGFGLGKRLQQKSPEDELTYPQLFTAGMLSGVFTTGIMTPGERIKCLLQIQASSGKNKYSGTLDCAKKLYQEFGIRGFYKGTALTLMRDVPASGMYFMTYEWLKNLFTPQGKSVHDLSVPRVLVAGGFRGIFNWVVAIPPDVLKSRFQTAPPGKYPNGFRDVLRELIREEGVTSLYKGFNAVMIRAFPANAACFLGFEIPMKILNWIAPNL | 2 | ~2 | 
recombinant carnitine/acylcarnitine carrier wild type (natural protein, UniProt P97521 1-301, looked up, also called CAC WT; WT; source: overexpressed from cDNA cloned in pMW7, purified, reconstituted in liposomes) MAEEPKPISPLKNLLAGGFGGVCLVFVGHPLDTVKVRLQTQPPSLPGQPPMYSGTIDCFRKTLFREGITGLYRGMAAPIIGVTPMFAVCFFGFGLGKRLQQKSPEDELTYPQLFTAGMLSGVFTTGIMTPGERIKCLLQIQASSGKNKYSGTLDCAKKLYQEFGIRGFYKGTALTLMRDVPASGMYFMTYEWLKNLFTPQGKSVHDLSVPRVLVAGGFRGIFNWVVAIPPDVLKSRFQTAPPGKYPNGFRDVLRELIREEGVTSLYKGFNAVMIRAFPANAACFLGFEIPMKILNWIAPNL |  |  | 2
